# Source: patent US7838288B2, “Modulators of odorant receptors” (Duke University, priority 2004, dated 2010)
# B1: RTP1-A1: RTP1 variant from deleting portions of RTP1-A; murine SEQ ID NO: 46, human SEQ ID NO: 47 (protein, listed as Mus musculus)
# chain: MCKSVTTGEWKKVFYEKMEEVKPADSWDFIIDPNLKHNVLAPGWKQYLELHASGRFHCSWCWHTWQSPHVVILFHMYLDKAQRAGSVRMRVFKQLCYECGTARLDESSMLEENIESLVDNLITSLREQCYGERGGHYRIHVASRQDNRRHRGEFCEACQEGIVHWKPSEKLLEEEATTYTFSRAPSPTKPQAETGSGCNFCSIPWCLFWATVLMLIIYLQFSFRTSV
# Tested on: OR-S6/S79
# Assay: CRE-luciferase reporter gene assay, OR-S6/S79
# Assay type: cell-based, mouse
# Conditions: 293T cells expressing RTP1 variant
# Description: Four ORs (S6/79, S18, S46 and S50) previously assayed using other techniques (see, e.g., Malnic, B., et al. (1999) Cell 96, 713-723; herein incorporated by reference in its entirety) were tested against an assay panel of aliphatic alcohols, aldehydes and acids and some other odorants. Additionally, five “orphan” class I ORs (MOR23-1, MOR31-4, MOR31-6, MOR32-5 and MOR32-11) whose cognate ligands were unknown were tested. At a suprathreshold concentration of 100 uM, all these ORs were odorant selective, responding to only a small subset of the odorants tested (see FIG. 11A). This specificity was retained at lower, more physiologically relevant concentrations. Many of these ORs responded to odorants present in micromolar concentrations. The cell-surface expression of these ORs by living-cell immunofluorescence were evaluated. Some ORs (S18, MOR31-4, MOR31-6 and MOR32-5) were strongly expressed while other ORs (S6, S50, MOR23-1, MOR32-11) were weakly expressed (see FIG. 12). The present invention is not limited to a particular mechanism. Indeed, an understanding of the mechanism is not necessary to practice the present invention. […] Finally, two additional orphan class II ORs, MOR203-1 and olfr62, were tested against a panel of 139 odorants. […] Olfr62 responded to coumarine and piperonal (see FIG. 11C). […] When parental 293T cells for these ORs were used in this luciferase assay, little or no response to the odorants was observed. The present invention is not limited to a particular mechanism. Indeed, an understanding of the mechanism is not necessary to practice the present invention.
# An expression system has been established that permits rapid identification of ligands for ORs. This system was tested with twelve ORs. Four of the tested ORs (S6/S79, S18, S46, and S50) were expressed in single olfactory neurons responding to aliphatic odorants (see, e.g., Malnic, B., et al. (1999) Cell 96, 713-723; herein incorporated by reference in its entirety). The response profiles of OR-S50, but not that of OR-S18 agreed with the previous report (see, e.g., Malnic, B., et al. (1999) Cell 96, 713-723; herein incorporated by reference in its entirety). […] In experiments conducted during the course of the present invention, OR-S6/S79 responded to nonanedioic acid but not to heptanoic acid or octanoic acid. The present invention is not limited to a particular mechanism. […] When multiple single olfactory neurons that expressed the same OR were recorded against the same set of odorants using calcium imaging, their response profiles were similar but different (see, e.g., Bozza, T., et al. (2002) J Neurosci 22, 3033-3043; herein incorporated by reference in its entirety).
# Dual-Glo system (Promega) for luciferase assay was used. […] Luminescence was measured using Wallac Victor 1420 (Perkin-Elmer). […]
molecule,measurement,value
B1,S6 activity as indicated by luciferase expression,Increased enhancement
